The record followed here is PMC546145.

Read-outs that look alike come from different tables or passages of the source.

Holding throughout (assay): competition EMSA
The target in series [1] is T1, Ku heterodimer, Ku70 subunit;Ku heterodimer, Ku80 subunit (human;human, UniProt P12956;P13010 1-609;1-732, |).
Series [2] concerns the target T1, Ku heterodimer, Ku70 subunit;Ku …. This is another data set of the same source.
Series [3] has the same target. The source holds these as a separate data set.

T1 sequence (P12956 whole entry, chain 1 of 2): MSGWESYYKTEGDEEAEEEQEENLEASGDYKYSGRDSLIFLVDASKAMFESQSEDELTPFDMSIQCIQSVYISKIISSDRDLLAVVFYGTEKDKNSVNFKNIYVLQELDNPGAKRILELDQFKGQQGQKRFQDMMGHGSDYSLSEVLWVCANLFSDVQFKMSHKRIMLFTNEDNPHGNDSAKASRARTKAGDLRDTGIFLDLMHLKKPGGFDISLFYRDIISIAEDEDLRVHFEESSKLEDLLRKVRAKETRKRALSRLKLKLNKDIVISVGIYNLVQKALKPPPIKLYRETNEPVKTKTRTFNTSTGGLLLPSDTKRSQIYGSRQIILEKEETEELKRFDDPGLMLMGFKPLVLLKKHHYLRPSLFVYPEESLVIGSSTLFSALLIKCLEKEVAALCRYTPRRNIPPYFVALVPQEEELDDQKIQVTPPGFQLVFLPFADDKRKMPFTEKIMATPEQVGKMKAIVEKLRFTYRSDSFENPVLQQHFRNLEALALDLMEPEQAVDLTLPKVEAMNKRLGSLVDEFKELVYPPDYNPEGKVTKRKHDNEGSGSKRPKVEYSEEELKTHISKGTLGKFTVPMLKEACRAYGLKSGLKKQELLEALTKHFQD
T1 sequence (P13010 whole entry, chain 2 of 2): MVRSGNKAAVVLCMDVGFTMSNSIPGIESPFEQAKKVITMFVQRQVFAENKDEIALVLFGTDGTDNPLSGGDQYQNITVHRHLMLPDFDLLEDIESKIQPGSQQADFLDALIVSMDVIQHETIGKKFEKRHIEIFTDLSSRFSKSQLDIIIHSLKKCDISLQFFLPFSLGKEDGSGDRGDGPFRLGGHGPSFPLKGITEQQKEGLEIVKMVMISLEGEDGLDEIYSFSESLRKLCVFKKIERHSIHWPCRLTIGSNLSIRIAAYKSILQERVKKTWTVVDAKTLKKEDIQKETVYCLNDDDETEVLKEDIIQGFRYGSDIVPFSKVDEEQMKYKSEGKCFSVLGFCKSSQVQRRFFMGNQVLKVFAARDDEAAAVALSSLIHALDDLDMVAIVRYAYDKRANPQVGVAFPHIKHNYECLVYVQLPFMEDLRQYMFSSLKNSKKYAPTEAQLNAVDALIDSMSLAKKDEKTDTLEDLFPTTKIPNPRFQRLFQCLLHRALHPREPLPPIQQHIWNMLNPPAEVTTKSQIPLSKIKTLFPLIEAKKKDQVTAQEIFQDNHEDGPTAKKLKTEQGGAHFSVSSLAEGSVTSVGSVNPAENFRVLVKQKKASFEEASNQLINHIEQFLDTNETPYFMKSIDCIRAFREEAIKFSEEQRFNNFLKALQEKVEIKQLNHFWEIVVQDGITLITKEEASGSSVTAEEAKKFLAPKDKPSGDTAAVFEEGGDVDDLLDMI

B1: 5P/5B undamaged (dsDNA)
DNA 1: CCCCTGGCTTTCTTTTCCTCTTCCTTCCCC
DNA 2: GGGGAAGGAAGAGGAAAAGAAAGCCAGGGG
modifications: 5' biotin on strand 2
On to B1, for which the binding result in series [1] is recorded as “binds”.

B2: MP/3B + Pt (dsDNA)
DNA 1: CCCCTCTCCTTCTTGGCTTCTTCCTTCCCC
DNA 2: GGGGAAGGAAGAAGCCAAGAAGGAGAGGGG
modifications: cisplatin adduct at central GG of strand 1 (15-16); 3' biotin on strand 2
For B2, in series [2], the binding result was “binds”.

B3: MP/5B + Pt (dsDNA)
DNA 1: CCCCTCTCCTTCTTGGCTTCTTCCTTCCCC
DNA 2: GGGGAAGGAAGAAGCCAAGAAGGAGAGGGG
modifications: cisplatin adduct at central GG of strand 1 (15-16); 5' biotin on strand 2
With B3, the binding result in series [3] is given as “binds”.
